# PMC7350415
# Key:
# [1] = biological target: ovine CD27 (OaCD27), full length, C-terminally V5 tagged, on transfected HEK293 cells (Ovis aries); assay: immunostaining of cells or tissue; HEK293 cells transfected with the V5-tagged receptor incubated with 10 μg of purified ligand for 15 min at 4 °C, then fixed; ligand detected with anti-ovine Fc antibody, receptor with anti-V5; confocal microscopy, pixel colocalisation in 25-40 cells
# [2] = biological target: ovine OX40 (OaOX40), full length, C-terminally V5 tagged, on transfected HEK293 cells (Ovis aries); assay: immunostaining of cells or tissue; HEK293 cells transfected with the V5-tagged receptor incubated with conditioned media from adenovirus-infected cells for 15 min, then fixed; ligand detected with anti-Fc antibody, receptor with anti-V5; confocal microscopy, pixel colocalisation in 25-40 cells
# [3] = biological target: ovine CD27 (OaCD27), full length, C-terminally V5 tagged, on transfected HEK293 cells (Ovis aries); assay: as above
# [4] = biological target: ovine OX40 (OaOX40), full length, C-terminally V5 tagged, on transfected HEK293 cells (Ovis aries); assay: immunostaining of cells or tissue; HEK293 cells transfected with the V5-tagged receptor incubated with 10 μg of purified ligand for 15 min at 4 °C, then fixed; ligand detected with anti-ovine Fc antibody, receptor with anti-V5; confocal microscopy, pixel colocalisation in 25-40 cells
substance,measurement,setting,value
"purified recombinant ovine CD70 (rOaCD70), baculovirus-expressed: ovine IgG1 Fc - isoleucine zipper - predicted extracellular domain of ovine CD70 (Fc fusion)",percentage of ligand sharing pixel localisation with its receptor,[1],72.8%
secreted rOaOX40L expressed from recombinant adenovirus Ad5-OaOX40L (same construct as the baculovirus protein) (Fc fusion),percentage of ligand signal colocalising with its receptor,[2],60.4%
secreted rOaCD70 expressed from recombinant adenovirus Ad5-OaCD70 (same construct as the baculovirus protein) (Fc fusion),percentage of ligand signal colocalising with its receptor,[3],73.5%
"purified recombinant ovine OX40L (rOaOX40L), baculovirus-expressed: ovine IgG1 Fc - isoleucine zipper - predicted extracellular domain of ovine OX40L (Fc fusion)",percentage of ligand sharing pixel localisation with its receptor,[4],59.3%
